# Earlier results as cited in paper PMC6070697.
# Experiments:
# Assay in all cases: kinetics
# Conditions in all cases: enzyme turning over with acetyl-CoA and an amine substrate
# Glu47 = Glu47 (UniProt position 82, FFFKDEPLNTF)
# Glu34 = Glu34 (UniProt position 34, HYYPEEPLTAG)
# Glu26 = tested on: Glu26
substance,measurement,setting,value
Arylalkylamine N-acetyltransferase A (Dm-AANATA; dopamine N-acetyltransferase) (Drosophila melanogaster),pKa,Glu47,approximately pH 7.5
Agmatine N-acetyltransferase (Dm-AgmNAT; formerly Dm-AANATL8) (Drosophila melanogaster),pKa,Glu34,approximately pH 7.5
Arylalkylamine N-acetyltransferase like 7 (Dm-AANATL7) (Drosophila melanogaster),pKa,Glu26,approximately pH 7.5
